T1: PTP1B1-301 (Homo sapiens, UniProt P18031)
T1 construct: His6 (cleaved yes); made in house; host or cells: E. coli
T1 sequence (P18031 1-301): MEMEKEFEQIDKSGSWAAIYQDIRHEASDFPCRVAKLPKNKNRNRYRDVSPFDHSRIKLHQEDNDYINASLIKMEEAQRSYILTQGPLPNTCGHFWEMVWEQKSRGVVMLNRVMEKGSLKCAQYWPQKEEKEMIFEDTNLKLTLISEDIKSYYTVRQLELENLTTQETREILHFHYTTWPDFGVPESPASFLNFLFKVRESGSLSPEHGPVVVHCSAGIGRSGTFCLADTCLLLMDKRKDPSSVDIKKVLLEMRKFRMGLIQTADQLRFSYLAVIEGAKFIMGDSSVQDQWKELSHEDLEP

B1: PTP1BYAYA: mutant of PTP1B1-301 having point mutations at Y152 and Y153 (Y152A/Y153A) within the L11 loop (protein)
chain: T1 sequence (P18031 1-301) with Y152A, Y153A
modifications: The sequence was designed and synthesized
notes: mutant of PTP1B1-301 having point mutations at Y152 and Y153 (Y152A/Y153A) within the L11 loop
B2: PTP1B1-284/Δ7: truncated PTP1B, residues 1-284, lacking the α7 helix (SEQ ID NO: 3) (protein)
chain: MEMEKEFEQIDKSGSWAAIYQDIRHEASDFPCRVAKLPKNKNRNRYRDVSPFDHSRIKLHQEDNDYINASLIKMEEAQRSYILTQGPLPNTCGHFWEMVWEQKSRGVVMLNRVMEKGSLKCAQYWPQKEEKEMIFEDTNLKLTLISEDIKSYYTVRQLELENLTTQETREILHFHYTTWPDFGVPESPASFLNFLFKVRESGSLSPEHGPVVVHCSAGIGRSGTFCLADTCLLLMDKRKDPSSVDIKKVLLEMRKFRMGLIQTADQLRFSYLAVIEGAKFIMGD
modifications: The sequence was designed and synthesized
B3: Wild-type PTP1B1-301: PTP1B catalytic domain, amino acid residues 1-301 (SEQ ID NO: 2) (protein)
chain: T1 sequence (P18031 1-301)
modifications: The sequence was designed and synthesized
B4: PTP1BS295A: PTP1B1-301 mutant with point mutation in the α7 helix (protein, UniProt P18031 1-301, looked up, variant S295A)
chain: T1 sequence (P18031 1-301) with S295A
B5: PTP1BW291A: PTP1B1-301 mutant with point mutation in the α7 helix (protein, UniProt P18031 1-301, looked up, variant W291A)
chain: T1 sequence (P18031 1-301) with W291A
B6: PTP1BS295A/E297A: PTP1B1-301 double mutant in the α7 helix (protein, UniProt P18031 1-301, looked up, variant S295A E297A)
chain: T1 sequence (P18031 1-301) with S295A, E297A
B7: PTP1BL192A: PTP1B1-301 mutant with mutation in the α3 helix (protein)
chain: T1 sequence (P18031 1-301) with L192A
modifications: The sequence was designed and synthesized
notes: PTP1B1-301 mutant with mutation in the α3 helix
B8: PTP1BN193A: PTP1B1-301 mutant with mutation in the α3 helix (protein)
chain: T1 sequence (P18031 1-301) with N193A
modifications: The sequence was designed and synthesized
notes: as for B7
B9: PTP1BY152A: PTP1B1-301 mutant with mutation in the L11 loop (protein, UniProt P18031 1-301, looked up, variant Y152A)
chain: T1 sequence (P18031 1-301) with Y152A
B10: PTP1BY153A: PTP1B1-301 mutant with mutation in the L11 loop (protein, UniProt P18031 1-301, looked up, variant Y153A)
chain: T1 sequence (P18031 1-301) with Y153A

Residue numbers refer to the chain shown, from its start. Numbers in names are those of the source. Entries after “also recorded” stand apart in the source; their conditions may differ.

For orientation: Km means the concentration of substrate that gives half-maximal velocity. By kcat is commonly meant the maximal rate divided by the concentration of active sites.

The first data set has as its target T1, PTP1B1-301. The data set can be described thus: NMR relaxation (R1, R2, hetNOE) of inhibitor-bound PTP1B1-301. The note with it: 1:3 ratio of PTP1B1-301 to inhibitor, compared to apo PTP1B1-301. The procedure: Inhibitors were titrated into 200 μM ^15N-PTP1B at molar ratios of 1:1; 1:2, 1:3, 1:5 and 2D [^1H, ^15N] TROSY spectra at 850 MHz were recorded for each titration point. Inhibitors were solubilized in D6-DMSO at 25 mM. CS for PTP1B in the 2D [^1H, ^15N] TROSY spectrum caused by the addition of D6-DMSO were negligible. Chemical shift differences (Δδ) between PTP1B and inhibitor-bound PTP1B (3:1 molar ratio) spectra were calculated using: […]
Changes in motions of the domains of PTP1B1-301 bound to TCS-401 were measured by detecting nuclear relaxation time data at 500 MHz. See, FIG. 8A and FIG. 8B. Fast-timescale backbone dynamics were measured for ligand-free and inhibitor-bound (at 3:1 molar ratios) PTP1B constructs at either 850 or 500 MHz 1H Larmor frequency. ^15N longitudinal (R1) and transverse (R2) relaxation rates and ^15N [^1H]-NOE (hetNOE) measurements were acquired. The hetNOE measurements were determined from a pair of interleaved spectra acquired with or without pre-saturation, and a recycle delay of 5 seconds (only at 500 MHz ^1H Larmor frequency). Error was determined using signal to noise ratio for a given peak.
With `CCc1oc2cc(S(=O)(=O)Nc3ccc(S(=O)(=O)Nc4nccs4)cc3)ccc2c1C(=O)c1cc(Br)c(O)c(Br)c1` [allosteric site inhibitor, 3-(3,5-Dibromo-4-hydroxy-benzoyl)-2-ethyl-benzofuran-6-sulfonic acid-(4-(thiazol-2-ylsulfamyl)-phenyl)-amide], the “effect of inhibitor binding on PTP1B1-301 ps-ns backbone dynamics” value is recorded as “minimal effect”.
On to `O=C(O)C(=O)Nc1sc2c(c1C(=O)O)CCNC2` [TCS-401], for which the “effect of inhibitor binding on PTP1B1-301 ps-ns backbone dynamics” value is “loss of motions in the α7 helix and part of the WPD loop”.

The test system of the next data set is PTP1B. The data set can be described thus: Phosphatase activity of PTP1B constructs against pNPP (enzyme assay). The data set is classed as biochemical, human. The note with it: FIG. 24, 25, 32B. As for the experimental part:
Phosphatase activity of PTP1B against the general PTP/DUSP substrate, p-nitrophenyl phosphate (pNPP), was tested in 50 mM HEPES pH 7.5, 150 mM NaCl, 0.5 mM TCEP. 40 μl of enzyme at a 1.5 μM concentration was added to 60 μl of pNPP substrate resuspended in the reaction buffer. See, FIG. 25. The final concentrations of pNPP used in this experiment were […]. The enzyme was incubated with the substrate at 30° C. for 30 min, after which 100 μl of 1 M NaOH was added to a final concentration of 0.5 M NaOH to quench the reaction. Absorbance was measured at 405 nm and the final concentration of p-nitrophenol (pNP) was calculated using the molar extinction coefficient of 18000 M-1 cm-1. A control reaction in which substrate was incubated in the absence of enzyme was subtracted from all other experimental values. All experiments were performed in triplicate.
Enzyme assays were performed at pH 7.5 with 0.15 μM PTP1B to compare the activities of wild-type PTP1B1-301 to mutants with mutations in the L11 loop: PTP1BY152A/F, PTP1BY153A/F, and PTP1BYAYA. See, FIG. 17. […] Ibid. […] Ibid. […] Ibid. […] Ibid. […] Ibid. […] Ibid.
Enzyme assays were performed at pH 7.5 with 0.015 μM PTP1B to compare the activities of wild-type PTP1B1-301 to mutants with mutations in the α3 helix such as PTP1BN193A. See, FIG. 27. […] Ibid. […] Ibid. […] Ibid. […] Ibid. […] Ibid. […] Ibid.
An enzyme assay was used to compare the activity of wild-type PTP1B1-301 to the activity of PTP1B1-284 P185G. See, FIG. 15. Enzyme assays were performed at pH 7.5 with 0.015 μM PTP1B to compare the activities of wild-type PTP1B1-301 to mutants with mutations in the α7 helix. See, FIG. 32A. In one embodiment, these point mutations were made in an amino acid sequence substantially similar to SEQ ID NO: 2.
With B1, the “phosphatase activity compared with other constructs (in words)” value is on record as “much lower”.

The data set is the same for the next values; noted with them: FIG. 24, 25, 32B; listed as PTP1BΔ7.
For the molecule B2, the “phosphatase activity compared with other constructs (in words)” value was “lack the activity exhibited by wild-type PTP1B1; also recorded: much lower”.

The data set is the same for the next values; noted with them: pNPP substrate, pH 7.5, 0.015 μM PTP1B (FIG. 27, 32A, 32B).
For the molecule B3, the Km was 460 ± 60 µM and the kcat came out at 6.2 ± 0.3 s⁻¹.
Consider B4, for which the Km was found to be 800 ± 70 µM and the turnover number (kcat) is 4.5 ± 0.1 s⁻¹.
On the same counts, the results for B5 are 990 ± 150 µM and 4.5 ± 0.3 s⁻¹.
On the same counts, the results for B6 are 580 ± 130 µM and 2.6 ± 0.13 s⁻¹.
On the same counts, the results for B7 are 610 ± 40 µM and 1.86 ± 0.04 s⁻¹.
B8: the Km is 830 ± 70 µM and the kcat was found to be 1.7 ± 0.06 s⁻¹.
In the same order, the values of B2 are 970 ± 100 µM and 1.7 ± 0.07 s⁻¹.

The data set is the same for the next values; noted with them: pNPP substrate, pH 7.5, 0.15 μM PTP1B (FIG. 17).
B3: the Michaelis constant (Km) worked out at 460 ± 60 µM and the kcat worked out at 6.2 ± 0.3 s⁻¹.
B9: the Km is 960 ± 40 µM and the kcat stood at 3.0 ± 0.06 s⁻¹.
In the case of B1, the Michaelis constant (Km) was found to be 450 ± 40 µM and the kcat is 1.8 ± 0.05 s⁻¹.
B10: the Km came out at 930 ± 180 µM and the kcat amounted to 3.6 ± 0.29 s⁻¹.

Tested on in the next data set: not listed separately
The data set can be described thus: Circular dichroism thermal denaturation (melting temperature). The data set is classed as physicochemical. The note with it: CD spectropolarimetry, thermal denaturation at 208 nm, 2.5 μM protein. As for the experimental part: Circular dichroism (CD) spectropolarimetry was used to measure the melting temperatures of PTP1BYAYA, PTP1B1-301, and PTP1B1-284. CD measurements were performed on a Jasco J-815 CD spectropolarimeter. PTP1B samples were dialyzed at 4° C. into 10 mM sodium phosphate, pH 6.8, 150 mM NaCl. Samples were then diluted to a protein concentration of 2.5 μM and placed in a 0.2-cm glass cuvette. Wavelength scans were performed in the far-UV region from 260 to 195 nm at 25° C. at a speed of 20 nm/min. Thermal denaturation scans were performed at 208 nm from 25 to 90° C. at a scan speed of 1° C./min. Raw data were processed using the denatured protein analysis routine implemented in the SepctraAnalysis software and converted to mean residue molar ellipticity using the following equation: [θ]=θ/(10×C×1×n), where θ is ellipticity, C is the molar concentration, 1 is the cell path length in centimeters, and n is the number of residues. Plots are the average of three replicate scans.
On the technique in general: Circular dichroism is widely used to follow secondary structure.
B3: the “melting point (Tm)” value is 55.46 °C.
Still for that read-out and setting: under B9 stands 53.89 °C; under B1, 50.41 °C.
Regarding B10, the “melting point (Tm)” value worked out at 53.75 °C.
On to B7, for which the “melting point (Tm)” value was 53.89 °C.
As to B8, the “melting point (Tm)” value is 49.1 °C.
In the case of B2, the “melting point (Tm)” value came to 54.9 °C.

The same data set, now with this note: CD spectropolarimetry, thermal denaturation at 208 nm, 2.5 μM protein; listed as PTP1B1-284.
For B2, the “melting point (Tm)” value stood at 54.87 °C.

The same data set, now with this note: difference to PTP1B1-284.
For B1, the “melting temperature lower than PTP1B1-284” value was “about 4.5 °C”.

Still in this data set, the particulars now being: difference to PTP1B1-301.
For B1, the “melting temperature lower than for PTP1B1-301” value is “about 5 °C”.

(Values after patent publication US20160046684A1, “Methods and compositions for treatment of PTP1B-related diseases” (BROWN UNIVERSITY, priority 2014, published 2016).)
